Assay results: patent US20260232732A1 (FUNDACI INSTITUT DE RECERCA CONTRA LA LEUC MIA JOSEP …, published 2026)
Where no end group is shown, it is not given here. The star is where a group is joined. Biotin = O=C1N[C@H]2[C@H](CS[C@H]2CCCCC(=O)*)N1

T1: naked peptide IPNMADDYGS (human)
T1 peptide: IPNMADDYGS

T2: naked peptide MTPTDFTSPI (human)
T2 peptide: MTPTDFTSPI

T3: naked peptide TDFTSPIPNM (human)
T3 peptide: TDFTSPIPNM

T4: naked peptide TSPIPNMADD (human)
T4 peptide: TSPIPNMADD

T5: naked peptide MADDYGSEST (human)
T5 peptide: MADDYGSEST

T6: naked peptide DYGSESTSSM (human)
T6 peptide: DYGSESTSSM

T7: naked peptide SESTSSMEDY (human)
T7 peptide: SESTSSMEDY

T8: naked peptide TSSMEDYVNF (human)
T8 peptide: TSSMEDYVNF

T9: naked peptide SSMEDYVNFN (human)
T9 peptide: SSMEDYVNFN

T10: naked peptide SMEDYVNFNF (human)
T10 peptide: SMEDYVNFNF

T11: naked peptide MEDYVNFNFT (human)
T11 peptide: MEDYVNFNFT

T12: naked peptide YVNFNFTDFY (human)
T12 peptide: YVNFNFTDFY

T13: naked peptide FNFTDFYCEK (human)
T13 peptide: FNFTDFYCEK

T14: naked peptide TDFYCEKNNV (human)
T14 peptide: TDFYCEKNNV

T15: naked peptide YCEKNNVRQF (human)
T15 peptide: YCEKNNVRQF

T16: naked peptide KNNVRQFAS (human)
T16 peptide: KNNVRQFAS

T17: biotin-peptide MTPTDFTSPI (human, also: prints MTPTDFTSP, without I10)
T17 peptide: Biotin-MTPTDFTSPI

T18: biotin-peptide TDFTSPIPNM (human)
T18 peptide: Biotin-TDFTSPIPNM

T19: biotin-peptide TSPIPNMADD (human)
T19 peptide: Biotin-TSPIPNMADD

T20: biotin-peptide MADDYGSEST (human)
T20 peptide: Biotin-MADDYGSEST

T21: biotin-peptide DYGSESTSSM (human)
T21 peptide: Biotin-DYGSESTSSM

T22: biotin-peptide TSSMEDYVNF (human)
T22 peptide: Biotin-TSSMEDYVNF

T23: biotin-peptide SSMEDYVNFN (human)
T23 peptide: Biotin-SSMEDYVNFN

T24: biotin-peptide MEDYVNFNFT (human)
T24 peptide: Biotin-MEDYVNFNFT

T25: biotin-peptide YVNFNFTDFY (human)
T25 peptide: Biotin-YVNFNFTDFY

T26: biotin-peptide FNFTDFYCEK (human)
T26 peptide: Biotin-FNFTDFYCEK

T27: biotin-peptide TDFYCEKNNV (human)
T27 peptide: Biotin-TDFYCEKNNV

T28: biotin-peptide YCEKNNVRQF (human)
T28 peptide: Biotin-YCEKNNVRQF

T29: biotin-peptide KNNVRQFAS (human)
T29 peptide: Biotin-KNNVRQFAS


Tests used:
naked peptide IPNMADDYGS [1] = biological target: T1, naked peptide IPNMADDYGS; assay: ELISA naked peptide; scFv 1 ug/mL; repI
Procedure: (§1) The peptides were synthesized naked or with a N-terminal Biotin modification with a purity of >98%. All four scFvs were verified by ELISA that can be detected with anti-His antibodies. ELISA was performed for scFv-peptide binding validation. Briefly, naked peptides were coated (50 μg/mL) in 0.58M carbonate-bicarbonate buffer pH9.5, 100 μL/well, 4° C. O/N. Then after blocking (3% BSA-PBS, 300 μL/well 37° C. 1.5 h) and washing (PBS+Tween-20 0.05% v/v (0.05% PBST), wells were incubated with each purified scFv antibody at concentration of 1 μg/mL in PBS at 37° C. 1 h. After washing (0.05% PBST), wells were incubated with secondary antibodies (goat anti-His IgG-HRP) in PBS, 37° C., 30 min. After washing, and incubation with TMB substrate, reactions were stopped with 2M HCl and reading was quantified at OD450.
(§2) Then a library of overlapping peptides were designed and constructed separately to produce 16 different peptides, covering full antigen sequence of total 48 aa. Peptide size was 10aa, with 7aa overlapping and ELISA screening of scFv against each peptide was performed in duplicate. Screening was performed using naked peptides in a standard plate or biotinylated peptides using avidin-plates.

naked peptide MTPTDFTSPI = biological target: T2, naked peptide MTPTDFTSPI; assay: ELISA naked peptide; scFv 1 ug/mL; repII
Procedure: as §1, §2

naked peptide TDFTSPIPNM = biological target: T3, naked peptide TDFTSPIPNM; assay: ELISA naked peptide; scFv 1 ug/mL; repII
Procedure: as §1, §2

naked peptide TSPIPNMADD = biological target: T4, naked peptide TSPIPNMADD; assay: ELISA naked peptide; scFv 1 ug/mL; repII
Procedure: as §1, §2

naked peptide IPNMADDYGS [2] = biological target: T1, naked peptide IPNMADDYGS; assay: ELISA naked peptide; scFv 1 ug/mL; repII
Procedure: as §1, §2

naked peptide MADDYGSEST = biological target: T5, naked peptide MADDYGSEST; assay: ELISA naked peptide; scFv 1 ug/mL; repII
Procedure: as §1, §2

naked peptide DYGSESTSSM = biological target: T6, naked peptide DYGSESTSSM; assay: ELISA naked peptide; scFv 1 ug/mL; repII
Procedure: as §1, §2

naked peptide SESTSSMEDY = biological target: T7, naked peptide SESTSSMEDY; assay: ELISA naked peptide; scFv 1 ug/mL; repII
Procedure: as §1, §2

naked peptide TSSMEDYVNF = biological target: T8, naked peptide TSSMEDYVNF; assay: ELISA naked peptide; scFv 1 ug/mL; repII
Procedure: as §1, §2

naked peptide SSMEDYVNFN = biological target: T9, naked peptide SSMEDYVNFN; assay: ELISA naked peptide; scFv 1 ug/mL; repII
Procedure: as §1, §2

naked peptide SMEDYVNFNF = biological target: T10, naked peptide SMEDYVNFNF; assay: ELISA naked peptide; scFv 1 ug/mL; repII
Procedure: as §1, §2

naked peptide MEDYVNFNFT = biological target: T11, naked peptide MEDYVNFNFT; assay: ELISA naked peptide; scFv 1 ug/mL; repII
Procedure: as §1, §2

naked peptide YVNFNFTDFY = biological target: T12, naked peptide YVNFNFTDFY; assay: ELISA naked peptide; scFv 1 ug/mL; repII
Procedure: as §1, §2

naked peptide FNFTDFYCEK = biological target: T13, naked peptide FNFTDFYCEK; assay: ELISA naked peptide; scFv 1 ug/mL; repII
Procedure: as §1, §2

naked peptide TDFYCEKNNV = biological target: T14, naked peptide TDFYCEKNNV; assay: ELISA naked peptide; scFv 1 ug/mL; repII
Procedure: as §1, §2

naked peptide YCEKNNVRQF = biological target: T15, naked peptide YCEKNNVRQF; assay: ELISA naked peptide; scFv 1 ug/mL; repII
Procedure: as §1, §2

naked peptide KNNVRQFAS = biological target: T16, naked peptide KNNVRQFAS; assay: ELISA naked peptide; scFv 1 ug/mL; repII
Procedure: as §1, §2

[3] = biological target: T17, biotin-peptide MTPTDFTSPI; assay: ELISA biotin-peptide; scFv 10 ug/mL; repII
Procedure: as §1
(§3) ELISA with biotin-conjugated peptides (5 μg/mL) was performed very similar to described above with minor modifications.

[4] = biological target: T18, biotin-peptide TDFTSPIPNM; assay: ELISA biotin-peptide; scFv 10 ug/mL; repII
Procedure: as §1, §3

[5] = biological target: T19, biotin-peptide TSPIPNMADD; assay: ELISA biotin-peptide; scFv 10 ug/mL; repII
Procedure: as §1, §3

[6] = biological target: T20, biotin-peptide MADDYGSEST; assay: ELISA biotin-peptide; scFv 10 ug/mL; repII
Procedure: as §1, §3

[7] = biological target: T21, biotin-peptide DYGSESTSSM; assay: ELISA biotin-peptide; scFv 10 ug/mL; repII
Procedure: as §1, §3

[8] = biological target: T22, biotin-peptide TSSMEDYVNF; assay: ELISA biotin-peptide; scFv 10 ug/mL; repII
Procedure: as §1, §3

[9] = biological target: T23, biotin-peptide SSMEDYVNFN; assay: ELISA biotin-peptide; scFv 10 ug/mL; repII
Procedure: as §1, §3

[10] = biological target: T24, biotin-peptide MEDYVNFNFT; assay: ELISA biotin-peptide; scFv 10 ug/mL; repII
Procedure: as §1, §3

[11] = biological target: T25, biotin-peptide YVNFNFTDFY; assay: ELISA biotin-peptide; scFv 10 ug/mL; repII
Procedure: as §1, §3

[12] = biological target: T26, biotin-peptide FNFTDFYCEK; assay: ELISA biotin-peptide; scFv 10 ug/mL; repII
Procedure: as §1, §3

[13] = biological target: T27, biotin-peptide TDFYCEKNNV; assay: ELISA biotin-peptide; scFv 10 ug/mL; repII
Procedure: as §1, §3

[14] = biological target: T28, biotin-peptide YCEKNNVRQF; assay: ELISA biotin-peptide; scFv 10 ug/mL; repII
Procedure: as §1, §3

biotin-peptide KNNVRQFAS = biological target: T29, biotin-peptide KNNVRQFAS; assay: ELISA biotin-peptide; scFv 10 ug/mL; repII
Procedure: as §1, §3

Row | OD450 (naked peptide IPNMADDYGS [1]) [OD] | OD450 (naked peptide MTPTDFTSPI) [OD] | OD450 (naked peptide TDFTSPIPNM) [OD] | OD450 (naked peptide TSPIPNMADD) [OD] | OD450 (naked peptide IPNMADDYGS [2]) [OD] | OD450 (naked peptide MADDYGSEST) [OD] | OD450 (naked peptide DYGSESTSSM) [OD] | OD450 (naked peptide SESTSSMEDY) [OD] | OD450 (naked peptide TSSMEDYVNF) [OD] | OD450 (naked peptide SSMEDYVNFN) [OD] | OD450 (naked peptide SMEDYVNFNF) [OD] | OD450 (naked peptide MEDYVNFNFT) [OD] | OD450 (naked peptide YVNFNFTDFY) [OD] | OD450 (naked peptide FNFTDFYCEK) [OD] | OD450 (naked peptide TDFYCEKNNV) [OD] | OD450 (naked peptide YCEKNNVRQF) [OD] | OD450 (naked peptide KNNVRQFAS) [OD] | OD450 [3] [OD] | OD450 [4] [OD] | OD450 [5] [OD] | Binder | also measured
1 | 0.01 | 0.04 | 0.06 | 0.05 | 0.01 | 0.02 | 0.02 | 0.04 | 0.03 | 0.09 | 0.02 | 0.06 | 0.04 | 0.02 | 0.03 | 0.04 | 0.02 | 0.07 | 0.08 | 0.15 | Comparative antibody 1 (Comp-1) scFv, SEQ ID NO: 10 from WO2023/037125 A1, His-tagged (scFv) scFv: QVQLKESGPGLVQPSQTLSLTCTVSGFSVASYDMHWVRLPPGKGLEWMGIIWANGNTHYNSGLKSRLSISRDTSKSQVFLKMNSLQTEDTAIYFCTRGGFAYWGQGTLVTVSSGGGGSGGGGSGGGGSGGGGSDVVMTQTPVSLSVSLGGQVSISCRSSQSLVHNNGNTYLSWYLQKPGQSPQLLIYKVSNRFSGVSDRFSGSGSGTDFTLKISRVEPDDLGVYYCGQGTQYPTFGGGTKLELKHHHHHH | OD450 [6]: 0.07 OD; OD450 [7]: 0.11 OD; OD450 [8]: 0.08 OD; OD450 [9]: 0.13 OD; OD450 [10]: 0.14 OD; OD450 [11]: 0.09 OD; OD450 [12]: 0.05 OD; OD450 [13]: 0.05 OD; OD450 [14]: 0.06 OD; OD450 (biotin-peptide KNNVRQFAS): 0.06 OD
2 | 0.02 | 0.04 | 0.04 | 0.02 | 0.02 | 0.03 | 0.02 | 0.03 | 0.03 | 0.99 | 1.48 | 0.86 | 0.02 | 0.03 | 0.03 | 0.03 | 0.03 | 0.09 | 0.09 | 0.06 | CCR9_HUM2 scFv (humanized anti-CCR9 scFv, SEQ ID NO: 17 with C-terminal 6xHis tag) (scFv) scFv: QVQLVQSGAEVKKPGASVKVSCTASGYSFTDYIIYWVKQAHGQSLEWMGYIDPNNYNTRYSQKFQGKVTITVDKSSTSAYMELNSLTSDDTAVYYCARDVYWGQGTTVTVSSGGGGSGGGGSGGGGSGGGGSDVVMTQTPLSLSVTPGQPASISCRSSQSLVHSNGKTYLQWYLQKPGQSPKLLIYKVSNRFSGVPDRFSGSGSGTDFTLKISRVEAEDVGVYFCAQSTHVWTFGGGTKVEIKRAHHHHHH | OD450 [6]: 0.16 OD; OD450 [7]: 0.07 OD; OD450 [8]: 1.92 OD; OD450 [9]: 2.3 OD; OD450 [10]: 2.32 OD; OD450 [11]: 0.21 OD; OD450 [12]: 0.06 OD; OD450 [13]: 0.06 OD; OD450 [14]: 0.06 OD; OD450 (biotin-peptide KNNVRQFAS): 0.09 OD
